Measured values published in doi:10.1101/2024.06.20.599739, “Design of linear and cyclic peptide binders of different lengths from protein sequence information” (bioRxiv, 2024).
Values joined by “and” are separate entries in the source; they are usually repeats but may differ in a detail not shown here. Identical values can stand only once.

Molecular target: T1, MBP-8xHis-1SCC (semi-synthetic Ribonuclease, PDB ID 1SSC) (UniProt P61823 27-138)
T1 construct: also called psfRNAseA; psfRNAseA-c001; source: E. coli BL21 (DE3) T1R, purified (IMAC, size exclusion chromatography)
T1 sequence: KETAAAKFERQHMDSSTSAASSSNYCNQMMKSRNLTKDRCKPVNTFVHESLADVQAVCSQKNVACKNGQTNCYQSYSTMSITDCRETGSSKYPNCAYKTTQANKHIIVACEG
Assay: SPR; MBP-8xHis-1SCC immobilised to about 12000 RU by amine coupling (EDC/NHS) on a Series S CM5 chip, Biacore 8K; peptides as analytes, single-cycle kinetics (2, 10, 50 μM; or 3.125-50 μM in five steps); 25 °C; HBS-P+ (10 mM HEPES pH 7.4, 150 mM NaCl, 0.05% Tween-20); 30 μL/min, 120 s association, 1800 s dissociation; 1:1 binding model
Conditions: both partners purified

B1: known peptide binder (11 residues) of the semi-synthetic Ribonuclease (peptide)
peptide: PYVPVHFDASV
notes: C-terminal stretch of ribonuclease A, the peptide chain of PDB 1SSC; also called wildtype (WT) linear peptide; wild-type peptide; source: synthetic peptide
With B1 the Kd was 35 nM and 25 nM.
